According to patent US20220289843A1 (ELPIS BIOPHARMACEUTICALS, published 2022):

Assays:
[1] = target: endogenous CD19 expressed on cell surface (Daudi cells, Raji cells, DLBCL tissue) (UniProt P15391); experiment: FACS on Raji cells, secondary reagent alone (background)
human CD3ε/Fc = target: T1, human CD3ε/Fc (human, UniProt P07766 23-126, limits assumed); experiment: ELISA, human CD3ε/Fc immobilised, BiTE serially diluted
T1 construct: Immobilised on the ELISA plate at 2 ug/mL; not shown: Fc
Experimental: Further, an ELISA assay was developed to determine the EC50 of anti-CD19/CD3 BiTE antibodies. Briefly, 384 well plate was immobilized with human CD3ε/Fc at final concentration of 2 μg/mL in 1×PBS in total volume of 25 uL per well. The plate was incubated overnight at 4° C. followed by blocking with 80 uL of superblock per well for 1 hour. Anti-CD19/CD3 BiTE proteins were serial diluted, and 25 μL was added to CD3ε immobilized wells and incubated for 1 hour with shaking. The CD3ε binding was detected by adding 25 μL of anti-Flag HRP diluted at 1:5000 in 1×PBST. In between each step, the plate was washed 3 times with 1×PBST in a plate washer. The plate was then developed with 20 μL of TMB substrate for 5 mins and stopped by adding 20 μL of 2N sulfuric acid. The plate was read at OD450 nm Biotek plate reader and then plotted in Prism 8.1 software.

[2] = target: T2, endogenous CD19 expressed on cell surface (Daudi cells, Raji cells, DLBCL tissue) (UniProt P15391 20-556, limits assumed); experiment: FACS on CD19+ Raji cells, BiTE serially diluted from 200 nM
T2 construct: whole, on cells; also called CD19+ Raji cells; CD19-positive DLBCL tissue
T2 sequence (looked up): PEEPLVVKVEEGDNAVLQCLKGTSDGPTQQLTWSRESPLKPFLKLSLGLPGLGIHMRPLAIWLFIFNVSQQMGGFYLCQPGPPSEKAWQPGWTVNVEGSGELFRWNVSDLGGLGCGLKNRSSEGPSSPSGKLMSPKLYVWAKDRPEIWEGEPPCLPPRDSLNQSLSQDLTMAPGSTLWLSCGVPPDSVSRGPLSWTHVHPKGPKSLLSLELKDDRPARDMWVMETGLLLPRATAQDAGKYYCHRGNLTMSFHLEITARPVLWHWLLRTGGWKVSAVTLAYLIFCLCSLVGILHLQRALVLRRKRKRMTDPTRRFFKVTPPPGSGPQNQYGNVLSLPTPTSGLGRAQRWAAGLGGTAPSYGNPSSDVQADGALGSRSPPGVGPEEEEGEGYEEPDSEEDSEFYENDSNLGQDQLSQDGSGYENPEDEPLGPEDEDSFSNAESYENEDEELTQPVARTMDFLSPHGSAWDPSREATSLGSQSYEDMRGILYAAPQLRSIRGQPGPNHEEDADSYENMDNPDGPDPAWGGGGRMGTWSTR
Experimental: (§1) A solution containing 200 nM of purified anti-CD19/CD3 BiTE antibodies were serial diluted in full medium and incubated with Raji cells in 96 wells plate on ice for one hour. Cells were spun down at 1200 rpm for 5 minutes at 4° C. to remove primary antibodies. Cells were then washed once with 200 uL of full medium per well. Samples were detected with premixed anti-His Biotin Streptavidin Alexa fluor 647 by adding 100 uL of diluted secondary antibody and incubated at 4° C. for 30 minutes in the dark. Samples were spun down at 1200 rpm for 5 minutes at 4° C. and washed twice with 200 uL of 1×PBS per well. Reconstituted samples in 200 uL of 1× PBS and read on Attune NxT cytometer. Analysis was done by Attune NxT software plotting the overlay histogram of CD19 or CD3 binding with secondary antibodies.

[3] = target: T2, endogenous CD19 expressed on cell …; experiment: FACS on Raji cells, anti-His biotin/streptavidin Alexa 647 detection
Experimental: as §1

[4] = target: T3, CD3 on CD3+ Jurkat T cells (Homo sapiens (Human), UniProt P07766 23-207); experiment: FACS on CD3+ Jurkat cells, anti-His biotin/streptavidin Alexa Fluor 647, positive cell counts
T3 construct: also called CD3+ Jurkat cells
Experimental: as §1
A similarly FACS assay was performed to examine the binding activity of the exemplary bispecific anti-CD19/anti-CD3 antibodies to CD3+ Jurkat T cells, following the descriptions above.

[5] = target: T2, endogenous CD19 expressed on cell …; experiment: FACS on CD19+ Raji cells, BiTE serially diluted from 200 nM; CD19+ Raji cells, FACS
Experimental: as §1

[6] = target: T4, full-length human CD19 fused with flag and Myc tags at the C-terminus, expressed on HEK293 or K562 cells (human, UniProt P15391 20-556); experiment: FACS on CD19/HEK293 cells, scFv titration, anti-His Alexa 488 detection
T4 construct: whole, on cells; also called CD19/HEK293 cells; CD19-expressing HEK293 cells; not shown: C-terminal flag and Myc tags (pCMV6-Entry vector)
T4 sequence (looked up): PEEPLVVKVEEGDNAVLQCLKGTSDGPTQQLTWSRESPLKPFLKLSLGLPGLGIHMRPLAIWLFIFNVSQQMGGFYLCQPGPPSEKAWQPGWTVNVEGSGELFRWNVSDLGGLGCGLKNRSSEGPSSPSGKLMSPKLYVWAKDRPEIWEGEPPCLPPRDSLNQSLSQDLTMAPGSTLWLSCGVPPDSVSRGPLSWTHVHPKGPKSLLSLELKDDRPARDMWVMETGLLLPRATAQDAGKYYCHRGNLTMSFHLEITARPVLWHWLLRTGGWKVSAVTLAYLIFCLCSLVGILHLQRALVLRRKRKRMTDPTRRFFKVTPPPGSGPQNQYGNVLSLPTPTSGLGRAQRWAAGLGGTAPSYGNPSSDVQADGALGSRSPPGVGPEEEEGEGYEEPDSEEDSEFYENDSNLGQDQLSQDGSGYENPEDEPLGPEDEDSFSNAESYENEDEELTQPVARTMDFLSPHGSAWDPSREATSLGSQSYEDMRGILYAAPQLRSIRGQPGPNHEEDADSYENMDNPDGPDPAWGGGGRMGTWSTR
Experimental: The diluted samples were incubated with CD19-expressing HEK293 cells (CD19/HEK293 cells) in 96 wells plate on ice for 1 hour. Cells were spun down at 1200 rpm for 5 minutes at 4° C. to remove unbound antibodies. Cells were then washed once with 200 μL of full medium per well. Samples were mixed with an Alexa fluor 488-conjugated anti-His antibody (secondary antibody, 100 μL, 1:1000 diluted) and incubated at 4° C. for 30 minutes in dark. Samples were then spun down at 1200 rpm for 5 minutes at 4° C. and washed twice with 200 uL of 1×PBS per well. The resultant samples were reconstituted in 200 uL of 1×PBS and read on Guava EasyCyte. Analysis was done by counting only Alexa Fluor 488-positive cells and then plotted in Prism 8.1 software.

[7] = target: T4, full-length human CD19 fused with flag …; experiment: FACS titration on CD19/HEK293 cells, anti-His Alexa Fluor 488, positive cell counts; 20 nM FMC63 IgG present as competitor
Experimental: Purified anti-CD19 scFv antibodies were titrated from 100 nM with 2-fold serial dilution. […] Cells were spun down at 1200 rpm for 5 minutes at 4° C. Samples were mixed with an Alexa fluor 488-conjugated anti-His antibody (100 uL, 1:1000 diluted) and incubated at 4° C. for 30 minutes in the dark. The samples were spun down at 1200 rpm for 5 minutes at 4° C. and washed twice with 200 μL of 1×PBS per well. The resultant samples were then reconstituted in 200 uL of 1×PBS and read on Guava EasyCyte. Analysis was done by counting only Alexa Fluor 488-positive cells and then plotted in Prism 8.1 software.

T1 sequence (P07766 23-126 limits assumed): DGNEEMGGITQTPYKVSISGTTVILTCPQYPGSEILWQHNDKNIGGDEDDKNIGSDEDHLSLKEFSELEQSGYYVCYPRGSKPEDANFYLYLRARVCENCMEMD
T3 sequence (P07766 23-207 limits assumed): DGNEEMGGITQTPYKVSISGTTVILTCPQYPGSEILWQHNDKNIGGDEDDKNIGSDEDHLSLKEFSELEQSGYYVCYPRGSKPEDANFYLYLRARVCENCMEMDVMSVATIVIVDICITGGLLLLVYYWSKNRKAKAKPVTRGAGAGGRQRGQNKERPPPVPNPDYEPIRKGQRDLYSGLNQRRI

Molecule	EC50 (human CD3ε/Fc) [nM]	% Raji cells stained positive [3] [%]	EC50 (read off the curve) [4] [nM]	EC50 [6] [nM]	further results
secondary antibody control					% Raji cells stained positive [1]: 1.3%
BiTE EP383 (bispecific antibody, also called anti-CD19/anti-CD3 BiTE antibody) EVQLVESGAEVKKPGASVKVSCKASGYTFTSYYMHWVRQAPGQGLEWMGIINPSGGSTSYAQKFQGRVTITADESTSTAYMELSSLRSEDTAVYYCAREGGYKDFDYWGQGTLVTVSSGGGGSGGGGSGGGGSDIVMTQSPSSLSASVGDRVTVTCRASQSIDTYLNWYQQKPGKAPKLLIYTASTLQSGVPSRFSGSGSGTDFTLTISSLQPEDFATYYCQQSYSAPRTFGQGTKVEIKGGGGSEVQLVESGGGLVQPGGSLRLSCAASGFTFSTYAMNWVRQAPGKGLEWVGRIRSKYNNYATYYADSVKGRFTISRDDSKNTLYLQMNSLRAEDTAVYYCVRHGNFGDSYVSWFAYWGQGTLVTVSSGGGGSGGGGSGGGGSGGGGSQAVVTQEPSLTVSPGGTVTLTCGSSTGAVTTSNYANWVQQKPGKSPRGLIGGTNKRAPGVPARFSGSLLGGKAALTISGAQPEDEADYYCALWYSNHWVFGGGTKLTVLHHHHHH	3.17	~80	~0.8		EC50 [2]: 0.846 nM
BiTE EP381 (bispecific antibody, also called anti-CD19/anti-CD3 BiTE antibody) QVQLQQWGAGLLKPSETLSLTCAVYGGSFSGYYWTWIRQPPGKGLEWIGEINHGGSSNYNPSLKSRVTISVDTSKKQFSLNLNSVTAADTAVYYCARGLGYRSGWYEVENAFDIWGQGTMVTVSSGGGGSGGGGSGGGGSQPVLTQPPSVSVAPGQTARITCGGNKIESRSVHWYQQKPGQAPVLVVYDDGARPSGIPERLSGSNSGDTATLTISRVEPGDEADYYCQVWDGSSVIFGGGTKLTVLGGGGSEVQLVESGGGLVQPGGSLRLSCAASGFTFSTYAMNWVRQAPGKGLEWVGRIRSKYNNYATYYADSVKGRFTISRDDSKNTLYLQMNSLRAEDTAVYYCVRHGNFGDSYVSWFAYWGQGTLVTVSSGGGGSGGGGSGGGGSGGGGSQAVVTQEPSLTVSPGGTVTLTCGSSTGAVTTSNYANWVQQKPGKSPRGLIGGTNKRAPGVPARFSGSLLGGKAALTISGAQPEDEADYYCALWYSNHWVFGGGTKLTVLHHHHHH	5.57	~92.3	~0.8		EC50 [5]: 0.766 nM
BiTE EP382 (bispecific antibody, also called anti-CD19/anti-CD3 BiTE antibody) QVQLVQSGGGVVQPGKSLRLSCAASGFPFSSYTMHWVRQPPGEGLEWVALISYDGRNLYYADSVKGRFTISRDNSYNSLYLQLSGLRAEDTALYYCARDINRDHFYGMDLWGPGTTVTVSSGGGGSGGGGSGGGGSSYELTQPPSVSVAPGQTARIPCGGTNIGSKGVHWYQQKPGQAPVLVIYYDHSRPSGIPERFSGSNSGNTAALTISRVEAGDEADYYCQVWEGTSDHPVFGGGTKLTVLGGGGSEVQLVESGGGLVQPGGSLRLSCAASGFTFSTYAMNWVRQAPGKGLEWVGRIRSKYNNYATYYADSVKGRFTISRDDSKNTLYLQMNSLRAEDTAVYYCVRHGNFGDSYVSWFAYWGQGTLVTVSSGGGGSGGGGSGGGGSGGGGSQAVVTQEPSLTVSPGGTVTLTCGSSTGAVTTSNYANWVQQKPGKSPRGLIGGTNKRAPGVPARFSGSLLGGKAALTISGAQPEDEADYYCALWYSNHWVFGGGTKLTVLHHHHHH	7.58	~81.1	~4		EC50 [2]: 3.81 nM
2018EP187-A12 (scFv, VH-VL orientation) (scFv, Purified from E. coli periplasmic expression (pET22b); fully human scFv from mRNA display; also called 2018EP187-Al2; not shown: C-terminal flag and 6xHIS tag) scFv: QVQLQQWGAGLLKPSETLSLTCAVYGGSFSGYYWTWIRQPPGKGLEWIGEINHGGSSNYNPSLKSRVTISVDTSKKQFSLNLNSVTAADTAVYYCARGLGYRSGWYEVENAFDIWGQGTMVTVSSGGGGSGGGGSGGGGSQPVLTQPPSVSVAPGQTARITCGGNKIESRSVHWYQQKPGQAPVLVVYDDGARPSGIPERLSGSNSGDTATLTISRVEPGDEADYYCQVWDGSSVIFGGGTKLTVL				0.751	EC50 (read off the curve) [7]: 1.6 to 3 nM
2018EP188-B10 (scFv, VH-VL orientation) (scFv, Purified from E. coli periplasmic expression; not shown: C-terminal flag and 6xHIS tag) scFv: QVQLVQSGGGVVQPGKSLRLSCAASGFPFSSYTMHWVRQPPGEGLEWVALISYDGRNLYYADSVKGRFTISRDNSYNSLYLQLSGLRAEDTALYYCARDINRDHFYGMDLWGPGTTVTVSSGGGGSGGGGSGGGGSSYELTQPPSVSVAPGQTARIPCGGTNIGSKGVHWYQQKPGQAPVLVIYYDHSRPSGIPERFSGSNSGNTAALTISRVEAGDEADYYCQVWEGTSDHPVFGGGTKLTVL				1.26	
2018EP142-D09 (scFv, VH-VL orientation) (scFv, Purified from E. coli periplasmic expression; also called EP142-D9; not shown: C-terminal flag and 6xHIS tag) scFv: EVQLVESGAEVKKPGASVKVSCKASGYTFTSYYMHWVRQAPGQGLEWMGIINPSGGSTSYAQKFQGRVTITADESTSTAYMELSSLRSEDTAVYYCAREGGYKDFDYWGQGTLVTVSSGGGGSGGGGSGGGGSDIVMTQSPSSLSASVGDRVTVTCRASQSIDTYLNWYQQKPGKAPKLLIYTASTLQSGVPSRFSGSGSGTDFTLTISSLQPEDFATYYCQQSYSAPRTFGQGTKVEIK				7.18	
